{"source": "paper doi:10.1101/2024.11.12.623303", "about": "(bioRxiv, 2024)", "binders": {"B1": {"name": "BTN2A2-His tag protein (without Fc tag) (domain or fragment, human, UniProt Q8WVV5 33-237, looked up)", "chain": "QFTVVGPANPILAMVGENTTLRCHLSPEKNAEDMEVRWFRSQFSPAVFVYKGGRERTEEQMEEYRGRITFVSKDINRGSVALVIHNVTAQENGIYRCYFQEGRSYDEAILRLVVAGLGSKPLIEIKAQEDGSIWLECISGGWYPEPLTVWRDPYGEVVPALKEVSIADADGLFMVTTAVIIRDKYVRNVSCSVNNTLLGQEKETV", "modifications": "fluorescently labeled by covalent labeling (Monolith protein labeling kit RED-NHS 2nd generation, amine reactive)"}}, "target": "T1, recombinant CD45RO-Fc protein (Catalog # 10642-CD, R&D systems) (UniProt P08575-4 26-416)", "T1 sequence (looked up)": "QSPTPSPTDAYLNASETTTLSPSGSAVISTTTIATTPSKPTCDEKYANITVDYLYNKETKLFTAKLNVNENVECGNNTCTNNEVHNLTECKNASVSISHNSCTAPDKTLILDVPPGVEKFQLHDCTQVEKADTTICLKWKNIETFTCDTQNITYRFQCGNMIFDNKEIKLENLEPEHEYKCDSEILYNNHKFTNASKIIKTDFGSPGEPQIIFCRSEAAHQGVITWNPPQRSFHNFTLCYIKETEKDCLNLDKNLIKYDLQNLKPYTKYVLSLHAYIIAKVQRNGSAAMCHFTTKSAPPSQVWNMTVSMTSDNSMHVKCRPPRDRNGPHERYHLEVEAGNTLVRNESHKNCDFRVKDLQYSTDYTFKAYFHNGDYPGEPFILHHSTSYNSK", "assay": "MST"}
{"binder": "B1", "values": [{"measurement": "Kd", "value": 63.5, "unit": "nM"}]}
